One data set deals with Zif268 (Mus musculus). Nature of the data set: EMSA. The following applies: MBP fusion, same conditions; target sequence not given.
Data set [1] concerns SP-1 zinc finger domain (Homo sapiens). In words: EMSA. The following applies: MBP fusion, same conditions; target sequence not given.
Data set [2] deals with T1, VEGF3a/1 six-finger ZFP (synthetic).
T1 chain: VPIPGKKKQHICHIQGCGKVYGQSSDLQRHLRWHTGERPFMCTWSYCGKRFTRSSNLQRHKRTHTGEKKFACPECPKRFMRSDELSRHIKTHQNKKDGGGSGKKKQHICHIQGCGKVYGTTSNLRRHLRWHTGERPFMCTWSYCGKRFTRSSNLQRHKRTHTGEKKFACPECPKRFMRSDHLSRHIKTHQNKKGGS
Nature of the data set: EMSA; apparent Kd, room temperature, 25 uM ZnCl2, poly dI-dC. The following applies: tags: N-terminal MBP fusion; label: 5'-32P. As for the experimental part: (§1) For the EMSA studies, 20 μl binding reactions contained 10 fmole (0.5 nM) 5′-³²P-labeled double-stranded target DNA, 35 mM Tris HCl (pH 7.8), 100 mM KCl, 1 mM MgCl₂, 5 mM dithiothreitol, 10% glycerol, 20 μg/ml poly dI-dC, 200 μg/ml bovine serum albumin, and 25 μM ZnCl₂. Protein was added as one fifth volume from a 3-fold dilution series. Binding was allowed to proceed for 60 min at either room temperature or 37° C. Polyacrylamide gel electrophoresis was carried out at room temperature or 37° C. using precast 10% or 10-20% Tris-HCl gels (BioRad) and standard Tris-Glycine runmning buffer. […] Thus, the 18-bp binding ZFP bound with high affinity to its target site. In a parallel experiment, VEGF1 protein was tested against its target using the oligonucleotides described in Example I, yielding an apparent Kd of approximately 2.5 nM.

Data set [3] addresses T1, VEGF3a/1 six-finger ZFP. In words: EMSA; apparent Kd, 37 C; complex half-life more than 10x longer than VEGF1. The following applies: tags: N-terminal MBP fusion; label: 5'-32P. As for the experimental part: as §1
The apparent Kd is a useful measure of the affinity of a protein for its DNA target. However, for a DNA binding site either in vitro or in vivo, its occupancy is determined to a large extent by the off-rate of the DNA-binding protein. The conditions for EMSA were as described above; binding and electrophoresis were performed at 37° C. […] Thus, under these in vitro conditions, the occupancy of the target site is much higher for the 18-bp binding protein than for the 9-bp binding protein.

For a further data set, the target named is T2, VEGF1-KRAB (synthetic, UniProt P08047 SEQ:1-99).
T2 chain: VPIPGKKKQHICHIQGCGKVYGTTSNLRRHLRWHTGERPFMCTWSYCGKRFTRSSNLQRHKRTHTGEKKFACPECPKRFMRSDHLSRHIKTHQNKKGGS
In words: cell_activity; endogenous VEGF ELISA, DFX-treated 293 cells. The settings on record: tags: SV40 NLS, KRAB (KOX1), FLAG. As for the experimental part: Eighteen hours post transfection, the 293 cells were induced by treatment with 100 μM DFX (desferrioxamine), resulting in a rapid and lasting transcriptional activation of the VEGF gene and also in a gradual increase in VEGF mRNA stability (Ikeda et al., J. Biol. Chem. 270:19761-19766 (1995)). Under routine culture conditions, 293 cells secrete a low level of VEGF in the culture media. The cells were allowed to incubate an additional 24 hours before the supernatants were collected for determination of VEGF levels by an ELISA assay.

As for Zif268 target (sequence not stated), the Kd with Zif268 (Mus musculus) stood at 60 nM.
In turn, SP-1 target (sequence not stated) yielded a Kd in data set [1] of 65 nM.

B1: JVF9/JVF10 VEGF 18-bp target (dsDNA)
DNA 1: AGCGAGCGGGGAGGATCGCGGAGGCTTGGGGCAGCCGGGTAG
DNA 2: CGCTCTACCCGGCTGCCCCAAGCCTCCGCGATCCTCCCCGCT
Turning to B1, the Kd with VEGF3a/1 six-finger ZFP [2] was around 1.5 nM; with VEGF3a/1 six-finger ZFP [3] it was around 9 nM.

B2: endogenous VEGF promoter target region (dsDNA)
DNA 1: AGCGGGGAGGATCGCGGAGGCTTGG
DNA 2: CCAAGCCTCCGCGATCCTCCCCGCT
B2 displayed an activity with VEGF1-KRAB of 2 fold repression.

(Values after patent publication US20050239203, “Regulation of endogenous gene expression in cells using zinc finger proteins” (published 2005).)
